Our source for the binding result and Kd values is paper PMC12823420 (Nature, 2024).

Where no end group is shown, it is not given here.

One may read the Kd as the constant that tells how readily two partners part at equilibrium. High values mean a looser complex, low ones a tighter complex.

Common to all, as to conditions: both partners purified
In assay [1] the target is T1, UAP56 (human, UniProt Q13838 1-428).
T1 construct: The methods name 6×His-TwinSTREPII-3C-UAP56 and 10×His-3C-UAP56; also called DDX39B; DDX39
As to the kind of experiment: pull-down.

For assay [2], the target named is T1, UAP56. As to the kind of experiment: pull-down; MBP-tagged full-length or truncated ALYREF (2.5 µM) on amylose resin with 12.5 µM UAP56, UCM-1, N-UBM or C-UBM or 6 µM full-length SARNP; with or without 1 mM ATP and 200 µM 15 U RNA; Coomassie.
In assay [3] the target is T1, UAP56. The assay can be described thus: grating-coupled interferometry (GCI); biotinylated UBM or UCM peptides captured on a streptavidin chip; UAP56 injected; 25 mM HEPES pH 7.9, 50 mM KCl, 1 mM MgCl2, 1 mM TCEP, 25 °C; one-to-one model; UCM peptides also with AMP-PNP or AMP-PNP and 15 U RNA.
For the next assay, the target named is T2, Flag-tagged UAP56 (human, UniProt Q13838 1-428).
T2 construct: Used in an in vitro pull-down analysed by Coomassie staining
As to the kind of experiment: pull-down; Flag-tagged UAP56 (5 µM) on anti-Flag M2 beads with WT or mutant SARNP (20 µM); buffer A2, room temperature 1 h; Coomassie.

B1: 10×His-SUMO-3V5-tagged SARNP UCM-1 (residues 82-115) (peptide)
chain: VDVAAEKKVVKITSEIPQTERMQKRAERFNVPVS
notes: also called Sumo-V5–UCM-1; SUMO-V5-3C–UCM; source: E. coli BL21 DE3 RIL, purified (HisTrap, HiTrapQ, Superdex 75)
Consider B1, for which the binding result with UAP56 [1] is “binds”.

B2: MBP-tagged ALYREF^N (residues 1–182) (domain or fragment)
chain: not shown
notes: also called ALYREF construct harbouring only an N-UBM
As for B2, the binding result in the assay with UAP56 [2] is recorded as “binds”.

B3: MBP-tagged ALYREF^C (residues 106–257) (domain or fragment)
chain: not shown
notes: also called ALYREF harbouring only a C-UBM
Consider B3, for which, in the assay with UAP56 [2], the binding result is listed as “binds”.

B4: SARNP UCM-4 peptide, biotinylated (peptide)
chain: SISRKSEDDEKLKKRKERFGIVTS
modifications: also: biotinylated, site not given here
On to B4, for which the Kd with UAP56 [3] lay in the range of 10 to 20 µM.

B5: MBP-SARNP^47–210-3C-3V5-SUMO-10×His (domain or fragment, human, UniProt P82979 47-210, looked up)
chain: EEEANEEDVLGDETEEEETKPIELPVKEEEPPEKTVDVAAEKKVVKITSEIPQTERMQKRAERFNVPVSLESKKAARAARFGISSVPTKGLSSDNKPMVNLDKLKERAQRFGLNVSSISRKSEDDEKLKKRKERFGIVTSSAGTGTTEDTEAKKRKRAERFGIA
notes: SARNP, human, residues 47-210; also called MBP-SARNP residues 47-210; SARNP lacking the N-terminal SAP domain; source: E. coli BL21 DE3 RIL, purified; not shown: MBP, N-terminal, kept
Turning to B5, the binding result in the assay with Flag-tagged UAP56 is recorded as “binds”.

B6: SARNP-6×His (full-length SARNP) (natural protein, human, UniProt P82979 1-210, looked up)
chain: MATETVELHKLKLAELKQECLARGLETKGIKQDLIHRLQAYLEEHAEEEANEEDVLGDETEEEETKPIELPVKEEEPPEKTVDVAAEKKVVKITSEIPQTERMQKRAERFNVPVSLESKKAARAARFGISSVPTKGLSSDNKPMVNLDKLKERAQRFGLNVSSISRKSEDDEKLKKRKERFGIVTSSAGTGTTEDTEAKKRKRAERFGIA
notes: SARNP, human; also called CIP29; recombinant full length SARNP; source: E. coli BL21 DE3 RIL, purified (HisTrap, HiTrapQ, Superdex 200)
B6: the binding result with Flag-tagged UAP56 is given as “binds”.
